From patent US20240059769A1 (BIOLOJIC DESIGN, published 2024)
Where two headings read alike, the source gives them in different places. Values belong to the binder of their own block, whether it stands above or below them.

How the values were obtained:
recombinant human IL-13 [1] = target: T1, recombinant human IL-13 (human, UniProt P35225 35-146); experiment: SPR (Biacore T200), antibody captured, hIL-13 as analyte 0.35-8.89 nM
T1 construct: also called rh-IL-13; hIL-13

recombinant human IL-13 [2] = target: T1, recombinant human IL-13; experiment: cell-based or functional assay
hTSLP-His [3] = target: T2, hTSLP-His (human, UniProt Q969D9 29-159, limits assumed); experiment: cell-based or functional assay
human TSLP [4] = target: T3, human TSLP (human, UniProt Q969D9 29-159); experiment: SPR (Biacore T200), antibody captured, hTSLP as analyte 0.231-5.926 nM
T3 construct: also called hTSLP; rhTSLP

human TSLP [5] = target: T3, human TSLP; experiment: cell-based or functional assay
recombinant human IL-13 [6] = target: T1, recombinant human IL-13; experiment: cell-based or functional assay; remark: listed apart in the source
[7] = target: T4, cynomolgus monkey (cyno) TSLP (cynomolgus monkey, UniProt A0A7N9CAT7 29-159); experiment: SPR
T4 construct: also called cTSLP; cynomolgus TSLP

[8] = target: T5, recombinant cynomolgus monkey IL-13 (cynomolgus monkey, UniProt Q0PW92 21-132); experiment: SPR
T5 construct: bought; also called rc-IL-13; cIL-13

hTSLP-His [9] = target: T2, hTSLP-His; experiment: competition ELISA: antibody titrated and pre-incubated with 7 nM TSLP-His, then on a plate coated with 33.001 (Tezepelumab), anti-His detection; row head on the sheet reads EC50, unit from the axis
hTSLP-His [10] = target: T2, hTSLP-His; experiment: competition ELISA, 7 nM TSLP-His pre-incubated with antibody; competitor Tezepelumab coated
hTSLP-His [11] = target: T2, hTSLP-His; experiment: cell-based or functional assay; remark: listed apart in the source
human TSLP [12] = target: T3, human TSLP; experiment: SPR
recombinant human IL-13 [13] = target: T1, recombinant human IL-13; experiment: SPR
human TSLP [14] = target: T3, human TSLP; experiment: SPR (ProteOn XPR36), antibody captured, hTSLP analyte 3.2-0.2 nM
recombinant human IL-13 [15] = target: T1, recombinant human IL-13; experiment: SPR, steady state, antibody captured, hIL-13 analyte
Method: Subsequent to a cycle, the analyte and tested antibody were stripped from the chip and new tested Ab was loaded on the chip as described above. KD was determined at a steady state condition.

human TSLP [16] = target: T3, human TSLP; experiment: SPR; remark: listed apart in the source
recombinant human IL-13 [17] = target: T1, recombinant human IL-13; experiment: SPR; remark: listed apart in the source
hIL-13-His [18] = target: T6, hIL-13-His (human, UniProt P35225 35-146); experiment: SPR (Biacore), antibody captured on anti-human Fc chip, hIL-13 as analyte, multi-cycle, 1:1 binding model
T6 construct: bought; also called human IL-13 (Acro Biosystems IL3-H52H4); not shown: His tag

[19] = target: T5, recombinant cynomolgus monkey IL-13; experiment: SPR; remark: listed apart in the source
human TSLP [20] = target: T3, human TSLP; experiment: SPR (Biacore), antibody captured on anti-human Fc chip, hTSLP as analyte, multi-cycle, 1:1 binding model
[21] = target: T4, cynomolgus monkey (cyno) TSLP; experiment: SPR; remark: listed apart in the source
hIL-13-His [22] = target: T6, hIL-13-His; experiment: SPR (Biacore), antibody captured on anti-human Fc chip, hIL-13 as analyte, multi-cycle, 1:1 binding model; remark: listed apart in the source
human TSLP [23] = target: T3, human TSLP; experiment: SPR (Biacore), antibody captured on anti-human Fc chip, hTSLP as analyte, multi-cycle, 1:1 binding model; remark: listed apart in the source
hIL-13-His [24] = target: T6, hIL-13-His; experiment: cell-based or functional assay

T4 sequence (A0A7N9CAT7 entry or part of it): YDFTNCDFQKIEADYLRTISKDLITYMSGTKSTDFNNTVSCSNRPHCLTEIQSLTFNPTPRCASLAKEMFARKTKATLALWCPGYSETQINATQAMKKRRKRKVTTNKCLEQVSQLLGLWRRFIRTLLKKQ
T5 sequence (Q0PW92 entry or part of it): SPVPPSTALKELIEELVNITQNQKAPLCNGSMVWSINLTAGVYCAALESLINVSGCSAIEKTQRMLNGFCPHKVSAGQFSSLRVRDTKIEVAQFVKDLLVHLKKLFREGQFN
T6 sequence (P35225 35-146 limits assumed): as the sequence (Q0PW92 entry or part of it) above, with S1G, K10R, V42M, N67S, R83H, V100L counted along it
T1 sequence (P35225 35-146 limits assumed): as the sequence (Q0PW92 entry or part of it) above, with S1G, K10R, V42M, N67S, R83H, V100L counted along it
T6 sequence (P35225 35-146 limits assumed): as the sequence (Q0PW92 entry or part of it) above, with S1G, K10R, V42M, N67S, R83H, V100L counted along it

Kd (recombinant human IL-13 [1]): 0.0317 nM | koff (recombinant human IL-13 [1]): 0.000385 s⁻¹ | kon (recombinant human IL-13 [1]): 1.22e+07 M⁻¹ s⁻¹ | HEK-IL-13 [nM] (IC50, STAT6 reporter) (recombinant human IL-13 [2]): 0.0253 nM | IC50 [pM], STAT5 phosphorylation inhibition in MUTZ5 cells (hTSLP-His [3]): 21.8 pM | Kd (human TSLP [4]): 0.00221 nM | koff (human TSLP [4]): 3.27e-05 s⁻¹ | kon (human TSLP [4]): 1.48e+07 M⁻¹ s⁻¹ | IC50 TARC (human TSLP [5]): 1.96 nM | IC50 CD23 (recombinant human IL-13 [6]): 0.0718 nM | Kd [7]: 0.00397 nM | koff [7]: 4.08e-05 s⁻¹ | kon [7]: 1.03e+07 M⁻¹ s⁻¹ | Kd [8]: 0.901 nM | koff [8]: 0.0141 s⁻¹ | kon [8]: 1.56e+07 M⁻¹ s⁻¹ | IC50 (hTSLP-His [9]): 3.63 nM | IC50 (hTSLP-His [10]): 3.63 nM | IC50, pSTAT5 in MUTZ-5 cell line (hTSLP-His [11]): ~13 pM | Kd (human TSLP [12]): 0.00221 nM | koff (human TSLP [12]): 3.27e-05 s⁻¹ | kon (human TSLP [12]): 1.48e+07 M⁻¹ s⁻¹ | Kd (recombinant human IL-13 [13]): 0.0317 nM | koff (recombinant human IL-13 [13]): 0.000385 s⁻¹ | kon (recombinant human IL-13 [13]): 1.22e+07 M⁻¹ s⁻¹
B1: BDG38.079 (antibody, V domains shown)
VH: QMQLVESGGGVVQPGRSLRLSCAASGFAFRTYGMHWVRQAPGKGLEWVAVIWYDGSNTHYADSVKGRFTITRDNSKNTLNLQMNSLRAEDTAVYYCVRAPQWYLTAEAFDLWGQGTMVTVSS
VL: SYVLTQPPSVSVAPGETATITCGGNMIGGYLVHWYQQKPGQAPLLVIYDDVDRPDRIPERFSGSNSGNTATLTISRVEAGDEADYYCQVWDHDSNTMVFGGGTKLTVL

Kd (human TSLP [14]): 4.5 nM | koff (human TSLP [14]): 0.00129 s⁻¹ | kon (human TSLP [14]): 287000 M⁻¹ s⁻¹ | Kd (recombinant human IL-13 [15]): 21.6 nM
B2: BDG33.003 (antibody, V domains shown)
VH: QMQLVESGGGVVQPGRSLRLSCAASGFTFRTYGMHWVRQAPGKGLEWVAVIWYDGSNKHYADSVKGRFTITRDNSKNTLNLQMNSLRAEDTAVYYCARAPQWELTAEAFDIWGQGTMVTVSS
VL: SYVLTQPPSVSVAPGQTARITCGGNLIGSKLVHWYQQKPGQAPVLVVYDDSDRPSLIPERFSGSNSGNTATLTISRVEAGDEADYYCQVWDSSSDGVVFGGGTKLTVL
notes: also called BGD33.003; Clone C2 (as IgG1)

Kd (human TSLP [16]): 0.00285 nM | koff (human TSLP [16]): 4.28e-05 s⁻¹ | kon (human TSLP [16]): 1.5e+07 M⁻¹ s⁻¹ | Kd (recombinant human IL-13 [17]): 0.0134 nM | koff (recombinant human IL-13 [17]): 0.00016 s⁻¹ | kon (recombinant human IL-13 [17]): 1.19e+07 M⁻¹ s⁻¹ | Kd (hIL-13-His [18]): 0.0523 nM | koff (hIL-13-His [18]): 0.000455 s⁻¹ | kon (hIL-13-His [18]): 8.7e+06 M⁻¹ s⁻¹ | Kd [19]: 0.849 nM | koff [19]: 0.00653 s⁻¹ | kon [19]: 7.7e+06 M⁻¹ s⁻¹ | HEK-IL-13 [nM] (IC50, STAT6 reporter) (recombinant human IL-13 [2]): 0.0286 nM | IC50 [pM], STAT5 phosphorylation inhibition in MUTZ5 cells (hTSLP-His [3]): 45.2 pM | Kd (human TSLP [20]): 0.00661 nM | koff (human TSLP [20]): 0.000212 s⁻¹ | kon (human TSLP [20]): 3.2e+07 M⁻¹ s⁻¹ | IC50 TARC (human TSLP [5]): 2.36 nM | IC50 CD23 (recombinant human IL-13 [6]): 0.164 nM | Kd [21]: 0.00135 nM | koff [21]: 1.85e-05 s⁻¹ | kon [21]: 1.37e+07 M⁻¹ s⁻¹
B3: BDG38.138 (antibody, human IgG1, lambda, L234A L235A)
heavy: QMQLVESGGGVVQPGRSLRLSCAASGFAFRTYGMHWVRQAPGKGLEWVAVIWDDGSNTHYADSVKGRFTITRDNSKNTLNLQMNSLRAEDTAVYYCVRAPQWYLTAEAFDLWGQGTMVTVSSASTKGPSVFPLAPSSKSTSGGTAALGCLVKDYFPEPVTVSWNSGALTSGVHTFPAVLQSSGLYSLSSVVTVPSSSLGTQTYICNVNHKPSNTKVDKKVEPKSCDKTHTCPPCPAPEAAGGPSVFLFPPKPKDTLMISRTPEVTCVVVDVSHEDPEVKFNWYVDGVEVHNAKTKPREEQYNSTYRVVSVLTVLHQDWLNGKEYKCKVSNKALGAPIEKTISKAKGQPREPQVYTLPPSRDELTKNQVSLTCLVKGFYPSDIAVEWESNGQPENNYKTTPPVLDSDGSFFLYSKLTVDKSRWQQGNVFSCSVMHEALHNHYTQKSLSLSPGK
light: SYVLTQPPSVSVAPGETASITCGGNMIGGYLVHWYQQKPGQAPVLVIYDDVDRPSRIPERFSGSNSGNTATLTISRVEAGDEADYYCQVWDHNSNHMVFGGGTKLTVLGQPKAAPSVTLFPPSSEELQANKATLVCLISDFYPGAVTVAWKADSSPVKAGVETTTPSKQSNNKYAASSYLSLTPEQWKSHRSYSCQVTHEGSTVEKTVAPTECS
notes: human IgG1 L234A/L235A/P329G (LALAPG); also called hIgG1 LALAPG; hIgG1 LALA-PG

Kd (hIL-13-His [22]): 0.0879 nM | koff (hIL-13-His [22]): 0.000323 s⁻¹ | kon (hIL-13-His [22]): 3.67e+06 M⁻¹ s⁻¹ | Kd (human TSLP [23]): 0.00779 nM | koff (human TSLP [23]): 0.0002 s⁻¹ | kon (human TSLP [23]): 2.57e+07 M⁻¹ s⁻¹ | IC50, CD23 expression on monocytes (hPBMC, 0.7 nM IL-13) (hIL-13-His [24]): 0.38 nM
B4: BDG38.145 (antibody, human IgG1, lambda, L234A L235A)
heavy: not shown
light: SYVLTQPPSVSVAPGETASITCGGNMIGGYLVHWYQQKPGQAPVLVIYDDVDRPSRIPERFSGSNSGNTATLTISRVEAGDEADYYCQVWDHNSNHMVFGGGTKLTVLGQPKAAPSVTLFPPSSEELQANKATLVCLISDFYPGAVTVAWKADSSPVKAGVETTTPSKQSNNKYAASSYLSLTPEQWKSHRSYSCQVTHEGSTVEKTVAPTECS
notes: human IgG1 L234A/L235A (LALA); same VH/VL as BDG38.138; also called BSG38.145; hIgG1 LALA
